Assay results published in patent publication US20250121043A1.

Experiments:
Experiment in all cases: cell-based or functional assay
[1] = target: 17.4α/8.3β TCR (8.3-TCR)
[2] = target: 17.6α/8.3β TCR (low affinity IGRP206-214-reactive Vα17.6/8.3β TCR)
[3] = target: Vα17.5+ TCR (CDR3-invariant Vα17.5-Jα42 chain with a single TCRβ chain) on TCRαβ-transfectants

## NRP-V7/K^d-coated nanoparticles (from UniProt P01902 22-305) (peptide-MHC)
[1]
  percentage of cells that had formed CD8 caps, 5 min of incubation with beads: < 20%
[2]
  percentage of cells that had formed CD8 caps, 5 min of incubation with beads: < 20%
  percentage of cells that had formed CD8 caps, 30 min of incubation with beads: < 20%
[3]
  percentage of cells that had formed CD8 caps, 5 min of incubation with beads: > 60%
